These results are taken from CN113354737A (GUANGZHOU EXCELMAB BIOMEDICAL TECH CO LTD, dated 2021).

Where two headings read alike, the source gives them in different places.

Common to all, as to assay: ELISA, coated antigen, HRP anti-human IgG
The target of test [1] is T1, 重组人GPC3近膜端抗原 (human, UniProt P51654 524-563).
T1 construct: range 524-563
T1 chain (looked up): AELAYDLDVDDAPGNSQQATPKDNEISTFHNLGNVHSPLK

Test [2] deals with T1, 重组人GPC3近膜端抗原.
In test [3] the target is T2, 重组人GPC3胞外区抗原 (human, UniProt P51654 25-559, limits assumed).
T2 construct: extracellular domain

Test [4] concerns the target T1, 重组人GPC3近膜端抗原.

T2 sequence (P51654 25-559 limits assumed): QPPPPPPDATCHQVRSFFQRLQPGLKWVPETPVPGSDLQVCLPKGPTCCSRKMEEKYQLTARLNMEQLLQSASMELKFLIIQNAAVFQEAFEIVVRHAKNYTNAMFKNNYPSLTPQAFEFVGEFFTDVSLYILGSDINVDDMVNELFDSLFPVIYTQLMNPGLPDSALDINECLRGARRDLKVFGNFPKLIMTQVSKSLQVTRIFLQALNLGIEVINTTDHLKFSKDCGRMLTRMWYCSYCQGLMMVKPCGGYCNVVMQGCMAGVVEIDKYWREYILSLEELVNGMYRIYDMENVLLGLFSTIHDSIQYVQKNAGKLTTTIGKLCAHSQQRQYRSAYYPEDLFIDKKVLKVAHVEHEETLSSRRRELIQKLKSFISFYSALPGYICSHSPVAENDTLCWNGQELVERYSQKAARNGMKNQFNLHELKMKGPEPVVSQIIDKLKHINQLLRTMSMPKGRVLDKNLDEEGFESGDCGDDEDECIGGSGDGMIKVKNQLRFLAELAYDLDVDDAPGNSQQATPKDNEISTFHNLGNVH

Take GC33单抗模拟物 (antibody): the half-maximal effective concentration (EC50) in test [1] came out at 0.063 µg/mL.

B1: 亲和力成熟变体7C6 (antibody, V domains shown)
VH: QVQLQQPGAELVKPGASVKLSCKASGYTFTTYYMYWVKQRPGQGLEWIGEINPSNGGTNFNEKFKSKATLTVDKSSSTAYMQLSSLTSEDSAVYYCTTFAYWGQGTLVTVSA
VL: DIVMTQSPSSLSASLGGKVTITCKASQDINKYIVWYQHKPGKGPRLLIHYTSILQPGIPSRFSGSGSGRDYSFSISNLEPEDIATYYCLQYDNLWTFGGGTKLEIK
For the molecule B1, in test [2], the midpoint of the response, the EC50, lay at 0.0428 µg/mL.

B2: 人源GPC3抗体10C7 (antibody, V domains shown)
VH: QVQLVQSGAEVKKPGASVKLSCKASGYTFTDYEMHWVKQTPGKGLKWIGALDPKTGDTAYAQKFQGRATLTADTSTDTAYMELSSLRSEDSAVYYCTRFYSYTYWGQGTLVTVSS
VL: DIVLTQSPLSLTVTPGEPASISCRSSESLVHSNGNTYLSWLQQRPGQPPRLLIYKISNRFSGVPDRFSGSGAGTDFTLKISRVEAEDVGVYYCTQATQFPYTFGQGTKVEIK
notes: also called 抗人GPC3抗体10C7
Turning to B2, the EC50 is 0.0836 µg/mL in test [3], 0.0279 µg/mL in test [4] and 0.141 µg/mL in test [2].

B3: 亲和力成熟变体5A5 (antibody, V domains shown)
VH: QVQLQQSGTELVRPGASVKLSCKALGYTFTDYEMHWVKQTPVHGLEWIGAIHPGSGDTAYNQRFKGKATLTADKSSSTAYMEYSSLTSEDSAVYYCTRFYSYAYWGQGTLVTVSA
VL: DVVMTQTPLSLPVSLGDQASISCRSSQSLVHSNGNTYLQWYLQKPGQSPKLLIYKVSNRFSGVPDRFSGRGSGTDFTLKISRVEAEDLGVYFCSQSIYVPYTFGGGTKLEIK
As for B3, the midpoint of the response in test [2], the EC50, lay at 0.0951 µg/mL.

B4: 亲和力成熟变体5E11 (antibody, V domains shown)
VH: QVQLKQSGAELMKPGASVKISCKATGYTFSRYWIEWVKQRPGHGLEWIGEILPGSGSTSYNEKFKGKATFTADTSSNTAYMQLSSLTSEDSAVYYCARSARATYYFDYWGQGTTLTVSS
VL: DIQMTQTTSSLSASLGDRVTISCWASQDISNYLNWYQQKPDGTVKLLIYYTSTLHSGVPSRFSGSGSGTDYSLTISNLEQEDIATYFCQQGNALPYTFGGGTKLEIK
Molecule B4 showed a half-maximal effective concentration (EC50) in test [2] of 0.12 µg/mL.
